Changes are numbered by the printed parent chain. Names may count otherwise.

Details in all cases: both partners purified
Experiment [1] has as its target T1, Tsr2 of the recombinant Tsr2:eS26 complex (XL-MS) (S. cerevisiae (yeast), UniProt Q06672 1-205).
T1 construct: Tsr2, S. cerevisiae; source: recombinant Tsr2:eS26 complex, 1 mg/ml in 50 mM HEPES
T1 sequence (looked up): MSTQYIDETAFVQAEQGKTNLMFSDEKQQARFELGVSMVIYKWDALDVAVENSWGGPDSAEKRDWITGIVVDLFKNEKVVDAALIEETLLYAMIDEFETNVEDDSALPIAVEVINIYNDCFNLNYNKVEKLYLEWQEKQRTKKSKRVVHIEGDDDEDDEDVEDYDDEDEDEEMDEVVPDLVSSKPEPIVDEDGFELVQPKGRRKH
As to the kind of experiment: cross-linking; recombinant Tsr2:eS26 complex, 1 mg/ml in 50 mM HEPES; DSS, PDH/DMTMM or ADH/DMTMM, 37 °C; digestion, SEC, LC-MS/MS (XL-MS).

Another experiment deals with T2, hTsr2E64G (ITC) (human, UniProt Q969E8 1-191, E64G).
T2 construct: human Tsr2 with the Diamond-Blackfan anemia-linked mutation E64G; also called E64G-DBA variant; hTsr2E64G mutant; source: E. coli BL21
T2 sequence (looked up): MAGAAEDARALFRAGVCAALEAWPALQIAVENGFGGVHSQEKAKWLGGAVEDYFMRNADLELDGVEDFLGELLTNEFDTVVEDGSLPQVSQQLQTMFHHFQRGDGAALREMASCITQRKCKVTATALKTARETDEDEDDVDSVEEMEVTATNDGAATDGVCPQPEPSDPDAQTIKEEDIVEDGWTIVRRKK
The experiment can be described thus: ITC; VP-ITC; 20–40 µM Tsr2 variant in the cell, 400–800 µM ESS2 peptide in the syringe; 25 °C, 20 mM NaPi pH 7.1, 1 mM DTT, 10 µM EDTA.

The target in another experiment is T3, hTsr2 (ITC) (human, UniProt Q969E8 1-191).
T3 construct: human Tsr2; probably made like the NMR constructs; also called WT hTsr2; human Tsr2; source: E. coli BL21
T3 sequence (looked up): T2 sequence (looked up) with G64E
The description is as above.

The target in the next experiment is T4, Tsr2-N (NMR) (S. cerevisiae (yeast), UniProt Q06672 1-152).
T4 construct: Used unlabeled or 13C,15N-labeled; also called N-terminal domain of Tsr2; source: E. coli BL21 (DE3) CodonPlus-RIL, purified (HisTrap, TEV, Superdex 75); not shown: (His)6-tagged GB1 domain, N-terminal, cleaved
T4 sequence (looked up): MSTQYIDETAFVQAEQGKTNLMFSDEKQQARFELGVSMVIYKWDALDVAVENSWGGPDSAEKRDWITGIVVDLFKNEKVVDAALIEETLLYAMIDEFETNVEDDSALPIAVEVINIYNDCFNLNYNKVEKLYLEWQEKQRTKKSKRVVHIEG
As to the kind of experiment: NMR titration; stepwise titration of the unlabeled component to the labeled one (Tsr2-N, ESS2 peptide), followed by 2D 15N,1H-HSQC; 293.15 K, NMR buffer.

B1: eS26 of the recombinant Tsr2:eS26 complex (XL-MS) (natural protein)
chain: not shown
notes: ribosomal protein eS26 (Rps26A), S. cerevisiae; source: recombinant Tsr2:eS26 complex, 1 mg/ml in 50 mM HEPES
Turning to B1, in experiment [1], the binding result is “binds”.

B2: human ESS2 peptide (peptide)
chain: RFRPAGAAPRPPPKPM
modifications: Human limits are not printed. They are taken by ungapped alignment to the yeast ESS2 construct in PDB 6G04 (eS26 residues 100-119; the text defines ESS2 as 99-119), running to the human C-terminus. …
As usually defined, the Kd is the concentration at which binding is half-saturated. Low readings indicate higher affinity, high ones lower affinity. As for B2, the Kd with hTsr2E64G (ITC) worked out at 90 µM; with hTsr2 (ITC), 2000 nM.

B3: ESS2 peptide (peptide, UniProt P39938 100-119, looked up)
peptide: RPRFNRENKVSPADAAKKAL
notes: eukaryotic-specific segment 2 of eS26 (Rps26A), S. cerevisiae, residues 100-119 as deposited; ESS2 is defined as 99-119 in the results, the deposited peptide as 100-119; also called eS26-ESS2; S26A(100-119); source: E. coli BL21 (DE3) CodonPlus-RIL, cleaved from (His)6-GB1 by TEV, purified by reverse-phase HPLC (C8); not shown: (His)6-tagged GB1 domain, N-terminal, cleaved
Turning to B3, the binding result in the experiment with Tsr2-N (NMR) was “binds”.

These data come from publication PMC6131548, “Molecular basis for disassembly of an importin:ribosomal protein complex by the escortin Tsr2” (Nature Communications, 2018).
